From article PMC7786285 (Frontiers in Immunology, 2020)

Molecular target: T1, EGFR-ECD-Fc chimera (Homo sapiens, UniProt P00533)
T1 construct: extracellular domain of the epidermal growth factor receptor, as Fc chimera; No catalogue number printed; detected through its Fc with a goat anti-human IgG Fc PE antibody; also called EGFR-Fc chimera; EGFR-Fc; source: bought: R&D
Assay: flow cytometry on cells; yeast cells displaying chimeric Fabs stained with EGFR-ECD-Fc chimera (100, 10 and 1 nM; sorting 250 nM down to 1 nM), detected with goat anti-human IgG Fc PE
Settings: one partner purified

B1: FEB4 VH paired with the VL of H1, Fab displayed on yeast (Fab, V domains shown)
VH: AVTLDESGGGLQTPGGALSLVCKASGFTFSSHGMLWVRQAPGKGLEFVAGISTDGSSTSYGAPVKGRATISRDNGQSTVRLQLNNLRAEDTGTYYCAKDAYRCRNCAEDIDAWGHGTEVIVSS
VL: ALTQPSSVSANPGETVKITCSGGYSYYGWIQQKSPGSAPVTLIYNNDNRPSGIPSRFSGSTSGSTSTLTITGVQAEDEAVYYCGSYDGSAGIFGAGTTLTVL
  binding result: binds

B2: FEB4 VH paired with the VL of H3, Fab displayed on yeast (Fab, V domains shown)
VH: AVTLDESGGGLQTPGGALSLVCKASGFTFSSHGMLWVRQAPGKGLEFVAGISTDGSSTSYGAPVKGRATISRDNGQSTVRLQLNNLRAEDTGTYYCAKDAYRCRNCAEDIDAWGHGTEVIVSS
VL: ALTQPSSVSANPGETVEITCSGGGSNSYYGWYQQKAPGSAPVTVIYDNTNRPSNIPSRFSGSLSDSTNTLTITGVQADDEAVYFCGNEDNTDSYVGIFGAGTTLTVL
  binding result: binds
